The chains are these.
B1: TPR t1 (parent)
chain: GACCAAUCUGCCCUCAGAGCUCGAGAACAUCUUCGGAUGCAGAGGAGGCAGGCUUCGGUGGCGCGAUAGCGCCAACGUCCUCAACCUCCAAUGCAUCCCACCACAUGAUGAUGCCUGAAGAGCCUUGGUUUUUUG

The variants in this data set derive from B1. In words: polymerase ribozyme fitness, log enrichment relative to wild type (log ratio); higher = more active; in vitro selection for triplet polymerase activity. The procedure, abridged:
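Libraries of mutants in each subunit of a heterodimeric triplet polymerase ribozyme were generated by PCR and transcribed. In triplicate, each went through one in vitro selection round: annealing with biotinylated primer, partner subunit and triplets; frozen incubation at −7 °C; gel excision of extended constructs; streptavidin-bead capture; RT-PCR. Fitness, taken from Illumina sequencing of input and output libraries, is the logarithm of a genotype's enrichment over wild-type enrichment, averaged across replicates with inverse-variance weights. The logarithm is base 2, and genotypes needed ≥10 input reads and ≥1 read per output to be kept.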
In the case of GACCAAUCUGCCUUCAGAGCUCGAGAUCAUCUUCGAAUGCAGAGGAGGCAGGCUUCGGUGACGCGAUAGCGCCAACGUACUCAACCUCCAAUGCAUCCCACCACAUGAUGAUGCCUGAAGAGCCUUGGUUUUUUG, the “polymerase ribozyme fitness (log ratio)” value was -5.13.

Turning to GACCAAUCUGCCCUCAGAGCUCGGGAACUUCUUCGGAUGCAGAUGAGGCAGGCUUCGGUGGCGCGAUAGCGCCAACGUCAUCAACCUCCAAUGCAUCCCACCACAUGAUGAUGCCUGAAGAGCCUUGGUUUUUUG, the “polymerase ribozyme fitness (log ratio)” value was -6.46.

In the case of GACCAAUCUGCCCUCAGAGCUCGAGAACAUCUUCGGAUGCAGAGGAGGCAGGCUUCGGUGGCGCGAUAGCGCCAACGUCCUCAACCUCCAAUGCAUUCCACCACAAGAUGAUGCCUGAAGAGCCUUGGUUUGAUG, the “polymerase ribozyme fitness (log ratio)” value came to 0.00837.

For GACGAAUCUGCCCUCAGAGCUCGAGAACAUCUUCGGAUGCAGAGGAGGGAGGCUUCGGUCGCGCGAUAGCGCCAACGUCCUCAACCUCCAAUGCAUCCCACCACAUGAUGAUGCCUGAUGAGCCUUGGUUUUAUG, the “polymerase ribozyme fitness (log ratio)” value is -3.77.

Take GACCAAUCUGCCCUCAGAGCUCGAGAACAUCUUCCGAUGCAGAGGAGGCAGGCUUCGGUGGCGCGAUAGCGCCAACGUCCUCAACCUCCAAUGCAUACCACCACAUGAUGAUGCCUGAAGAGCCUUGGUUUUUUG: the “polymerase ribozyme fitness (log ratio)” value was -5.43.

As for GACCAAUGUGCCCUCAGAGCUCGAGAUCAUCUUCGGAUGCAGAGGAGGCAGGCUUCGGUGGCGCGAUAGCGCCAACGUCCUCAACCUCCAAUGCAUCCCACCAAAUGAUGAUGCCUGAAGAGCCUUGGUUUUAUG, the “polymerase ribozyme fitness (log ratio)” value was -3.65.

With GACCAAUCUGCCCUCAGAGCUCGAGAACAUCUUCGGUUGCAGAGGAGGCAGGCUUCGGUGGCGCGAUAGCGCCAACCUCCUCAACCUCCAAUGCAUCCCACCACAUGAUGAUGCCUGAAGAGCCUUGGUUUUUUG, the “polymerase ribozyme fitness (log ratio)” value is -1.31.

For GACCAAUCUGUCCUCAGAGCUCGAGAACAUCUUCGGAUGCAGAGGAGGCAGGCUUCGGUAUCGCGAUAGCGCCAACGCCCUCAACGUCCAAUGCAUCCCACCACAUGAUGAUGCCUGAAGAGCCUUGGUUUUUUG, the “polymerase ribozyme fitness (log ratio)” value is -4.45.

For GACCAAUCUGCCCUCAGAGCUCGAGAACAUCUUCGGAUGCAGAGGAGGCAGGCUUCGGUGGCGUGAUAGCGCAAACGUCCUCAACCUCCAAUGCAUCCCACCACAUGAUGAUGCCUGAAGAGCCUUGGUUAUUUG, the “polymerase ribozyme fitness (log ratio)” value was -0.288.

As to GACCAAUCUGCCCUCAGAGCUCGAGAACAUCUUCGGAUGCAGAGGAGGCAGGCUUCGGUGGCGCGAUAGCGCCAAUGUCCUCAACCUCCAAUGCAUCCCACCACAUGAUGAUGCCUGAAGAGCCAUGGUUUUUUG, the “polymerase ribozyme fitness (log ratio)” value was -0.353.

For GACCAAUCUGCCCUCAGAGCUCGAGAACAUCUUAGGAUGCAGAGGAGGCAGGCUUCGGUGGCGCGAUAGCGCCAACGUCCUCAACCUCCAAUGCAUCCCACCACAUGAUGAUGCCUGAAGAGACUUGGUUUUUUG, the “polymerase ribozyme fitness (log ratio)” value is -2.18.

In the case of GACCAAUCUGCCCUCAGAGCUCGAGAACAUCUUCUGAUGCAGAGGAGGCAGGCUUCGGUGGCGCGAUAGCGCCAACGUCCUCAACCUCCAAUGCAUCCCACCACAUGAUGAUGCCUGAAGAGACUUGGUUUUUUG, the “polymerase ribozyme fitness (log ratio)” value is -3.61.

On to GACAAAUCUGCCCUCAGAGCUCGAGAACCUCUUCGGAUGCAGAGGAGGCAGGCUUCGGUGGCGCGAUAUCGCCAACGUCCUCAACCUCCAAUGCAUCCCACCACAUGAUAAUGCCUGAAAAGCCUUAGUUUUUUG, for which the “polymerase ribozyme fitness (log ratio)” value is -4.61.

On to GACCAAUCUGCCCUCAGAGCUCGAGAACAUCUUCGGAUCCAGAGGAGGCAGGCUUGGGUGGCGCGAUAGCGCCAACGUCCUCAACCUCCAAUGCAUCCCACCACAUGAUGAUGCCUGAAGAGCCUUGGUUUUUUG, for which the “polymerase ribozyme fitness (log ratio)” value is -1.53.

Take GACCAAUCUGCCCUCAGAGCUAGAGAACAUCUUCGGAUGCAGAGGAGGCAGGCUUCGGUGUCGCGAUAGCGCCAACGUCCUCAACCUCCAAUGCAUCCCACCACAUGAUGAUGCCUGAAGAGCCUUGGUUUUUUG: the “polymerase ribozyme fitness (log ratio)” value was -5.05.

For GACCAAUCUGCCCUCAGAGCUCGAGAACAUCUUCGGAUGCAGAGGAGGCAGGCUUCGGUGGCGCGAUGCCGCCAACGUCCUUAACCUCCAAUGCAUCCCACCACAUGAUGAUACCUGAAGAGCCUUGUUUUUUUG, the “polymerase ribozyme fitness (log ratio)” value is -4.89.

As for GACCAAUCUGCCCUCAGAGCUCGAGAGCAUCUUCGGAUGCUGAGGAGGCAGGCUUCGGUGGCGCGAUAGCGCCAACGUCCUCAACCUCCAAUGCAUCCCACCACAUGAUGAUGCCUGAAGAGCCUUGGUUUUUUG, the “polymerase ribozyme fitness (log ratio)” value is -2.67.

For GACCAAUCUGCCCUCAGAGCUCGAGAACAUCUUCGGAUGCAGAGGAGGCAGGCUUCGGUGGCGCGAUAGCGCCAACGUCGUCAACCUCCAAUGCAUCCCACCAUAUGAUGAUGCCUGAAGAGCCUUGGUUUUUUG, the “polymerase ribozyme fitness (log ratio)” value was -5.71.

GACCAAUCUGCCCUCAGAGCUCGAGAACAUCUUCGGAUGCAGAGGAGGCAGGCUUCGGUUGCGCGAUAGCGCCAACGUCCUCAACCUCCAAUGCAUCCCACCACAUGAUGAUGCCUGAAGUGCCUUGGUUUUUUG: the “polymerase ribozyme fitness (log ratio)” value turned out to be 1.63.

Consider GACCAAUCUGCCCUCAGAGCUCGAGAACAUCUUCGGAUGCAGAGGAGGCAGGCUUCGGUGGCGCGAUAGCGCCCACGUCCUCAACCUCCAAUGCAACCCACCACAUGAUGAUGCCUCAAGAGCCUUGGUUUUUUG, for which the “polymerase ribozyme fitness (log ratio)” value is -5.37.

Consider GACCAAUCUGCCCUCAGAGCUCGAGAACAUCUUCGGAUGCAGAGGAGGCAGGCUUCGGUGGCGCGAUAGCGCCAACGUCCUCAACCUCCAAUCCAUCCCACCACAUGAUGAAGCCUGAAGAGCCUUGGUUUUUUG, for which the “polymerase ribozyme fitness (log ratio)” value came to 0.679.
